B1: Cell division inhibitor SulA (Escherichia coli (strain K12)), P0AFZ5 (parent)
chain: MYTSGYAHRSSSFSSAASKIARVSTENTTAGLISEVVYREDQPMMTQLLLLPLLQQLGQQSRWQLWLTPQQKLSREWVQASGLPLTKVMQISQLSPCHTVESMVRALRTGNYSVVIGWLADDLTEEEHAELVDAANEGNAMGFIMRPVSASSHATRQLSGLKIHSNLYH

Variants of: B1
Settings: with hslu_ecoli hslU

Row | Variant | effect of a mutation on the interaction
1 | MYTSGYAHRSSSFSSAASKIARVSTENTTAGLISEVVYREDQPMMTQLLLLPLLQQLGQQSRWQLWLTPQQKLSREWVQASGLPLTKVIQISQLSPCHTVESMVRALRTGNYSVVIGWLADDLTEEEHAELVDAANEGNAMGFIMRPVSASSHATRQLSGLKIHSNLYH [M89I] | increasing interaction
2 | MYTSGYAHRSSSFSSAASKIARVSTENTTAGLISEVVYREDQPMMTQLLLLPLLQQFGQQSRWQLWLTPQQKLSREWVQASGLPLTKVMQISQLSPCHTVESMVRALRTGNYSVVIGWLADDLTEEEHAELVDAANEGNAMGFIMRPVSASSHATRQLSGLKIHSNLYH [L57F] | disrupting interaction
